Measured values reported in US9962427B2, “Treatment of right ventricular dysfunction due to pressure overload” (OTTAWA HOSPITAL RESEARCH INSTITUTE, priority 2016, dated 2018).

Key:
primary cardiomyocytes = test: Microarray gene expression analysis of primary cardiomyocytes (Affymetrix Rat gene 2.0ST array); format: cell-based; settings: 0.5 nM, 24 hours, versus non-stimulated
Protocol: FIGS. 8A and 8B. […] FIG. 8B Microarray analysis of primary cardiomyocytes stimulated with hCT1 (0.5 nM) for 24 hours.
Applicant explored the role of CT-1 as a pro-angiogenic factor in the adaptive hypertrophic response. Physiologic cardiac adaptive compensation is associated with an increase in capillary density, whereas pathologic response is characterized by a decline or no change at all. Importantly, the compensatory vascular growth/angiogenesis that occurs during physiologic adaptive compensation is permissive for the increased workload that accompanies physiologic adaptive compensation. Despite this adaptation, little information exists regarding the mechanisms that match the demand for angiogenesis to the beneficial form of myocardial growth. The rapid in vitro and in vivo adaptive compensation in response to CT-1 supports a hypothesis that the cardiomyocyte itself may act in a paracrine fashion, to signal and promote angiogenesis. To address this conjecture, Applicant examined whether CT-1 treated primary cardiomyocytes produced vascular endothelial growth factor (VEGF), an angiogenic factor known to be produced and secreted by cardiomyocytes. Primary cardiomyocytes were incubated with control serum-free media (Ctrl, SF media) or stimulated with hCT1 (0.5 nM), PE (100 μM), or PAC-1 (25 μM) for 24 hours. […]

NF-κB = NF-κB luciferase reporter in primary neonatal cardiomyocytes; format: cell-based; settings: hCT1 0.5 nM
Protocol: FIGS. 6A, 6B, and 6C. Stimulation with hCT1 causes sustained activation of NF-κB and Stat3 with limited activation of Mef2, as well as limited Nfat activation; the latter two indices are distinct expression patterns from pathologic hypertrophic stimulation. FIG. 6A Primary neonatal cardiomyocytes were transfected with luciferase reporter plasmids (NF-κB or Mef2), as indicators of hypertrophic activity. Luciferase activity was measured after treatments for 24 hrs with: hCT1 (0.5 nM), PE (100 μM), or procaspase 3 activating compound 1, PAC-1 (25 μM) (left). Treatments at early timepoints (30 min, 1 hr, and 3 hr) were also conducted for hCT1 (right). FIG. 6B Primary neonatal cardiomyocytes were transfected with a luciferase reporter plasmid for Stat3. Luciferase activity was measured after treatments for 24 hrs with: hCT1 (0.5 nM), PE (100 μM), or procaspase 3 activating compound 1, PAC-1 (25 μM) (left) and at earlier time points (right). […] Luciferase activity was measured after treatments for 24 hrs with: hCT1 (0.5 nM), PE (100 μM), or procaspase 3 activating compound 1, PAC-1 (25 μM) (left) and at earlier time points (right)
The signaling pathways that CT-1 engages in mediating physiologic adaptive compensatory remodeling were examined. […] Primary neonatal cardiomyocytes were transfected with luciferase reporter plasmids (NF-κB and Mef2) to be used as a read out of transcriptional activity. […]

B1: hCT1: Recombinant human CT1 protein; 201 amino acid sequence, GenBank Accession Nos AAD12173 and AAA85229 (human) (protein, UniProt Q16619 1-201, looked up)
Cardiotrophin-1: MSRREGSLEDPQTDSSVSLLPHLEAKIRQTHSLAHLLTKYAEQLLQEYVQLQGDPFGLPSFSPPRLPVAGLSAPAPSHAGLPVHERLRLDAAALAALPPLLDAVCRRQAELNPRAPRLLRRLEDAARQARALGAAVEALLAALGAANRGPRAEPPAATASAASATGVFPAKVLGLRVCGLYREWLSRTEGDLGQLLPGGSA
- VEGF increase (microarray) (primary cardiomyocytes): 1.3 fold
- angiogenic and endothelial factors (Angpt14, Flt4, Vwa5a) expression (primary cardiomyocytes): robust induction
- NF-κB luciferase activity at 1 hr and 3 hr (NF-κB): significant activation
- NF-κB transcriptional activity at 24 hrs (NF-κB): sustained
